Assay results from US20220088146A1, “Melanocortin Receptor-Specific Peptide Formulations and Methods for Gastrointestinal Tract-Specific Delivery” (Palatin Technologies, Inc., priority 2018, published 2022).
Bridge positions count the residues as written; N and C are the ends. Square brackets hold non-standard residues; d marks the D form. Nle = CCCC[C@H](N)C(=O)O; Dab = NCC[C@H](N)C(=O)O; Dap = NC[C@H](N)C(=O)O

B1: Ac-Nle-cyclo(Glu-His-D-Phe-Arg-Dab)-Lys-NH2 (peptide)
peptide: Ac-[Nle]EH[dF]R[Dab]K-NH2
modifications: lactam 2-6
SMILES: CCCC[C@H](NC(C)=O)C(=O)N[C@H]1CCC(=O)NCC[C@@H](C(=O)N[C@@H](CCCCN)C(N)=O)NC(=O)[C@H](CCCNC(=N)N)NC(=O)[C@@H](Cc2ccccc2)NC(=O)[C@H](Cc2c[nH]cn2)NC1=O
B2: Ac-Nle-cyclo(Glu-Pro-D-Phe-Arg-Dab)-Trp-NH2 (peptide)
peptide: Ac-[Nle]EP[dF]R[Dab]W-NH2
modifications: lactam 2-6
SMILES: CCCC[C@H](NC(C)=O)C(=O)N[C@H]1CCC(=O)NCC[C@@H](C(=O)N[C@@H](Cc2c[nH]c3ccccc23)C(N)=O)NC(=O)[C@H](CCCNC(=N)N)NC(=O)[C@@H](Cc2ccccc2)NC(=O)[C@@H]2CCCN2C1=O
B3: Ac-Nle-cyclo(Glu-His-D-Phe-Gly-Dab)-Trp-NH2 (peptide)
peptide: Ac-[Nle]EH[dF]G[Dab]W-NH2
modifications: lactam 2-6
SMILES: CCCC[C@H](NC(C)=O)C(=O)N[C@H]1CCC(=O)NCC[C@@H](C(=O)N[C@@H](Cc2c[nH]c3ccccc23)C(N)=O)NC(=O)CNC(=O)[C@@H](Cc2ccccc2)NC(=O)[C@H](Cc2c[nH]cn2)NC1=O
B4: Ac-Nle-cyclo(Glu-His-D-Phe-Ala-Dab)-Trp-NH2 (peptide)
peptide: Ac-[Nle]EH[dF]A[Dab]W-NH2
modifications: lactam 2-6
SMILES: CCCC[C@H](NC(C)=O)C(=O)N[C@H]1CCC(=O)NCC[C@@H](C(=O)N[C@@H](Cc2c[nH]c3ccccc23)C(N)=O)NC(=O)[C@H](C)NC(=O)[C@@H](Cc2ccccc2)NC(=O)[C@H](Cc2c[nH]cn2)NC1=O
B5: Ac-Nle-cyclo(Asp-His-D-Phe-Arg-Dap)-Trp-NH2 (peptide)
peptide: Ac-[Nle]DH[dF]R[Dap]W-NH2
modifications: lactam 2-6
SMILES: CCCC[C@H](NC(C)=O)C(=O)N[C@H]1CC(=O)NC[C@@H](C(=O)N[C@@H](Cc2c[nH]c3ccccc23)C(N)=O)NC(=O)[C@H](CCCNC(=N)N)NC(=O)[C@@H](Cc2ccccc2)NC(=O)[C@H](Cc2c[nH]cn2)NC1=O

What was measured:
[1] = target: human melanocortin-4 receptor (human) (UniProt P32245); assay: [I125]-NDP-α-MSH competition, hMC4r HEK-293 membranes
[2] = target: human melanocortin-1 receptor (human) (UniProt Q01726); assay: cell-based or functional assay
[3] = target: human melanocortin-1 receptor (human) (UniProt Q01726); assay: [I125]-NDP-α-MSH competition, hMC1r HEK-293 membranes

Chain of human melanocortin-4 receptor (human) (P32245 whole entry): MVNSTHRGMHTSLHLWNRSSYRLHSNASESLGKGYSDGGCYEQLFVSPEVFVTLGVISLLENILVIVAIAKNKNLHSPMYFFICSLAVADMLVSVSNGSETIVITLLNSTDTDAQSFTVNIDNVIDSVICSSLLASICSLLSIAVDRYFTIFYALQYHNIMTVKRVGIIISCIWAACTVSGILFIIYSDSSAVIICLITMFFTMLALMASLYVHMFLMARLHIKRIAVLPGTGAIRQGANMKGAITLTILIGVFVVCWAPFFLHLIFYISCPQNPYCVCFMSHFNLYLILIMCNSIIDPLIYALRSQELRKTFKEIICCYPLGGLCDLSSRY
Chain of human melanocortin-1 receptor (human) (Q01726 whole entry): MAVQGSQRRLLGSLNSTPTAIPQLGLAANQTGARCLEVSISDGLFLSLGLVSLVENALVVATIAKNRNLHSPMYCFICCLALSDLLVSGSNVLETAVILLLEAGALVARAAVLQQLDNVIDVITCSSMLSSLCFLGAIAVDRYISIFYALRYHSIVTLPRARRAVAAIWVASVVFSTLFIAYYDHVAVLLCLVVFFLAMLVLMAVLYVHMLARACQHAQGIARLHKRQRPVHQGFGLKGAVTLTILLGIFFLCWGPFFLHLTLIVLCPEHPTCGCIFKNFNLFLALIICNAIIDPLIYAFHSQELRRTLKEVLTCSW

Binder	Ki [1] [µM]	MC-1 EC50 (average; cAMP HBL) [2] [nM]	MC-1 Emax (average; cAMP HBL) [2] [%]	Ki [3] [nM]
B1	7.38	0.175	91	2
B2	0.185	0.18	97	3
Ac-[Nle]EH[dF]R[Dab]A-NH2 (lactam 2-6) [Ac-Nle-cyclo(Glu-His-D-Phe-Arg-Dab)-Ala-NH2]	7.48	0.08	97	2
B3	10	4	59	9
B4	10	0.115	72	0.8
B5	1.32	0.195	88	2
